Reference: EP4585618A1 (Jiangsu Hengrui Pharmaceuticals Co., Ltd., dated 2025)

B1: chimeric antibody ChP2-E11 (antibody, human IgG4 S228P, kappa, F234A L235A, V domains shown)
VH: QVQLQQSGPELVKPGASVKISCKASAYTFTDYYINWVKQRPGQGLEWIGWIFPGSGSTYYNEKFKGKATLTVDKSSSTAYMLVSSLTSEDSAVYFCARSGTLVAPYAMDYWGQGTSVTVSS
VL: SIVMTQTPKFLLVSAGDRVTITCKASQSVSNDVAWYQQKPGQSPKLLIYYTSNRYTGVPDRFTGSGYGTDFTFTISTVQAEDLAVYFCQQDYSFPLTFGAGTKLEIKR
notes: Murine variable regions with hIgG4(LALA) and CL constant regions; also called M P2-E11
B2: chimeric antibody ChP2-E7 (antibody, human IgG4 S228P, kappa, F234A L235A, V domains shown)
VH: QVQLQQPGTELVKPGASVKLSCKASGYTFTSYWMHWVKQSPGQGLEWIGNINPSNGGPNYNENFKTKATLTVDKSSSTAYMQLNSLTSEDSAVYYCAGGDYYGGSYLFAYWGQGTLVTVSS
VL: DTVMTQSHKFMSTSVGDRVSVTCKASQDVNIAVAWYQQKPGQSPKLLIYSSSYRYTGVPDRFTGSGSETDFTFTISSVQAEDLAVYYCQQHYTFPYTFGGGTKLEIKR
notes: Murine variable regions with hIgG4(LALA) and CL constant regions; also called M P2-E7
B3: chimeric antibody ChP2-G4 (antibody, human IgG4 S228P, kappa, F234A L235A, V domains shown)
VH: EVQLQQSGPELVKPGASVKMSCKASGYTFTDYNMHWVKQSHGKSLEWIGYINPNNGGTTYNQKFKGKATLTVNKSSSTAYMELRSLTSEDSAVYYCASSEYYGSTFLFAYWGQGTLVTVSS
VL: DIVMTQSHKFMSTSVGDRVGITCKASQDVSIAVAWYQQKPGQSPKLLIYSASYRYTGVPDRFTGSGSGTDFTFTISSVQAEDLAAYYCQQHYSTPWTFGGGTKLEIKR
notes: Murine variable regions with hIgG4(LALA) and CL constant regions; also called M P2-G4
B4: humanized antibody huP1-G7 (antibody, human IgG4 S228P, kappa, F234A L235A, V domains shown)
VH: EVQLQESGPGLVKPSQTLSLTCTVSGYSITSGYYWNWIRQHPGKGLEWIGYISYDGGNNYNPFLKNRVTISRDTSKNQFSLKLSSVTAADTAVYYCAREGGSSWEYYGMDYWGQGTTVTVSS
VL: DIQMTQSPSSLSASVGDRVTITCRASENIYRNLAWYQQKPGKAPKLLLYAATNLADGVPSRFSGSGSGTDFTLTISSLQPEDFATYYCQQFWGSPYTFGGGTKVEIKR
notes: Full chains; also called P1-G7H1L1
B5: humanized antibody huP1-D7 (antibody, human IgG4 S228P, kappa, F234A L235A, V domains shown)
VH: EVQLVQSGAEVKKPGASVKVSCKASGYTFTTYGMNWVRQAPGQGLEWMGWINTYSGVPTYAEDFKGRVTMTTDTSTSTAYMELRSLRSDDTAVYYCARRTDYDGYVMDSWGQGTTVTVSS
VL: DIVMTQSPDSLAVSLGERATINCKSSQSLFYSGNQKNYLAWYQQKPGQSPKLLLYWASTRESGVPDRFSGSGSGTDFTLTISSLQAEDVAVYYCQQYFSYPPTFGGGTKVEIKR
notes: Full chains; also called P1-D7H1L1
B6: chimeric antibody ChP2-C6 (antibody, human IgG4 S228P, kappa, F234A L235A, V domains shown)
VH: EVQLQQSGPELVKPGASVKMSCEASGYTFTDYYIHWVKQSHGESLEWIGYIYPDNGYNGYNQKFKGKATLTVDKSSNTAYMELRSLTSEDSAVYFCTRRGDYSGVHFDYWGQGTALTVSS
VL: DIVLTQSPASLAVSLGQRATISCRASESVNNYGVGFLHWYQQKPGQPPKLLIYRASTLESGIPARFSGSGSRTDFTLTINPVETDDVATYYCQHSYKDPPWTFGGGTKLEIKR
notes: Murine variable regions with hIgG4(LALA) and CL constant regions; also called M P2-C6
B7: chimeric antibody ChP1-D10 (antibody, human IgG4 S228P, kappa, F234A L235A, V domains shown)
VH: QVQLKQSGPGLVQPSQSLSITCTVSGFSLTTYGVHWVRQSPGKGLEWLGVIWSGGNTDSNAAFISRLSISKDNSKSQVFFKMNNLQADDTAIYYCARYSYAMDYWGQGTSVTVSS
VL: DIVMTQSHKFMSTSVGDRVSITCKASQDVSNGVAWYQQKPGQSPKVLIYAASYRYTGVPDRFTGSGSGTDFTFTIGSVQAEDLALYYCQQHYSTPFTFGSGTMLEIKR
notes: Murine variable regions with hIgG4(LALA) and CL constant regions; also called M P1-D10
B8: chimeric antibody ChP1-F7 (antibody, human IgG4 S228P, kappa, F234A L235A, V domains shown)
VH: DVQLQESGPGLVKPSQSLSLTCSVTGYSITSGYYWNWIRQFPGNKLEWMGYISYDGNNYYNPSLKNRISVTRDTSKNQFFLKLNSVTSEDTATYYCAREDGSYSDYDGFAYWGQGTLVTVSS
VL: DIQMTQSPASLSVSVGETVTITCRANENIYSNLAWYQQKQGKSPQLLVYAATNLADGVSSRFSGSGSGTQYSLRINSLQSEDFGSYYCQQFWGTPYTFGGGTKLEIKR
notes: Murine variable regions with hIgG4(LALA) and CL constant regions; also called M P1-F7
B9: chimeric antibody ChP2-C7 (antibody, human IgG4 S228P, kappa, F234A L235A, V domains shown)
VH: EVQLQQSGPELVKPGTSVKMSCKASGYTFTDYSMHWVRQSHGKSLEWIGYFNPNNGDTIYNQKFKGKATLTVNKSSSTAYMELRSLTSDDSAVYYCAREDSVSTNAWDGALDYWGQGTSVTVSS
VL: DIQMTQSPASLSVSVGETVTITCRTSENIYSNLAWYQQKQGKSPQLLVYGATNLADGVPSRFSGSGSGTQYSLKINSLQSEDFGSYYCQHFWDIPWTFGGGTTLEIKR
notes: Murine variable regions with hIgG4(LALA) and CL constant regions; also called M P2-C7
B10: chimeric antibody ChP2-G9 (antibody, human IgG4 S228P, kappa, F234A L235A, V domains shown)
VH: DVQLQESGPGLVKPSQSLSLACSVTGSSITSGYYWNWIRQFPGNKLEWMGYLSYDGSNNYNPSLKNRISITRDTSKSQFFLKLNSVTPEDTATYYCAREGAHYSGTLSWFAYWGQGTLVTVSS
VL: DIQMTQSPASLSVSVGETVTITCRASENIYSNLAWYQQKQGKSPQLLVYAATNLADGVPSRFSGSGSGTQYSLKINSLQSEDFGSYYCQHFWDTPYTFGGGTKLEIKR
notes: Murine variable regions with hIgG4(LALA) and CL constant regions; also called M P2-G9
B11: chimeric antibody ChP2-F10 (antibody, human IgG4 S228P, kappa, F234A L235A, V domains shown)
VH: DVQLQESGPGLVKPSQSLSLTCSVTGYSIASGYYWNWIRQFPGNKLEWMGYITYDGSNNYNPSLKNRISITRDTSKNQFFLKLNSVTTEDTATYYCAREYSYGSTLSWFAYWGQGTLVTVSS
VL: DIQMTQSPASLSISVGETVTITCRASENIYSNLAWYQQKQGKSPQLLVYAATNLADGVPSRFSGSGSGTQYSLKINSLQSEDFGSYYCQHFWDTPYTFGGGTKLEIKR
notes: Murine variable regions with hIgG4(LALA) and CL constant regions; also called M P2-F10
B12: chimeric antibody ChP1-G7 (antibody, human IgG4 S228P, kappa, F234A L235A, V domains shown)
VH: DVQLQESGPGLVKPSQSLSLTCSVTGYSITSGYYWNWIRQFPENKLEWMGYISYDGGNNYNPFLKNRISITRDTSKNQFFLNLNSVTIEDTATYYCAREGGSSWEYYGMDYWGQGTSVTVSS
VL: DIQMTQSPASLSVSVGETVTITCRASENIYRNLAWYQQKQGHSPQLLLYAATNLADGVPSRFSGSGSGTQYSLKINSLQSEDFGSYYCQQFWGSPYTFGGGTKLEIKR
notes: Murine variable regions with hIgG4(LALA) and CL constant regions; also called M P1-G7
B13: chimeric antibody ChP2-E3 (antibody, human IgG4 S228P, kappa, F234A L235A, V domains shown)
VH: EVQLQQSGPELVKPGASVKISCKASGYTFTDYYMNWVKQSHGKSLEWIGDINPNNGGTSYNQKFKGKATLTVDKSSSTAYMELRSLTSEDSTVYYCARGGVTTVVATYWYFDVWGTGTTVTVSS
VL: DIQMTQSPASLSVSVGETVTITCRASENIYSNLAWYQQKQGKSPQLLVYAATNVADGVPSRFSGGGSGTQYSLKINSLQSEDFGSYYCQQFWDTPFTFGSGTKLEIKR
notes: Murine variable regions with hIgG4(LALA) and CL constant regions; also called M P2-E3
B14: chimeric antibody ChP1-B4 (antibody, human IgG4 S228P, kappa, F234A L235A, V domains shown)
VH: QVQLKQSGPGLVQPSQSLSITCTVSSFSLTNYGVHWVRQSPGKGLEWLGVIWTGGSTDYNAAFISRLSIIRDNSKSQVFFKMNSLQADDTAMYYCAITTVVTAMDYWGQGTSVTVSS
VL: DIVMTQSHKFMSTSVGDRVSITCKASQDVNIAVVWYQQKPGQSPKLLIYAASYRYTGVPDRFTGSGSGTDFTFTISSVQAEDLAVYYCQQHYSSPYTFGGGTKLEIKR
notes: Murine variable regions with hIgG4(LALA) and CL constant regions; also called M P1-B4
B15: chimeric antibody ChP2-C10 (antibody, human IgG4 S228P, kappa, F234A L235A, V domains shown)
VH: QVQLQQPGAELVKPGASVKLSCKASGYTFTSYWMHWVKQRPGQGLEWIGVIHPNSDTTNYNEKFKNKATLTVDKSSSTAYMQLSSLTSEDSAVYYCATRYDYAYYAMDYWGQGTSVTVSS
VL: DIVMTQSHKFMSTSVGDRVSITCKASQDVTTAVAWYQQKPGQSPKLLIYSASYRYTGVPDRFTGSGSGTDFTFTISSVQAEDLAVYHCQQHYSTSPTFGGGTMLEIKR
notes: Murine variable regions with hIgG4(LALA) and CL constant regions; also called M P2-C10
B16: chimeric antibody ChP1-B9 (antibody, human IgG4 S228P, kappa, F234A L235A, V domains shown)
VH: QVQLKQSGPGLVQPSQSLSITCTVSGFSLTSYGVHWVRQSPGKGLEWLGVIWSGGNTDYNAAFMSRLRINKDNSKSQVFFKMNSLQGSDTAIYYCATPYDVVPFAYWGQGTLVTVSS
VL: DIVMTQSHKFMSTSVGDRVSITCKASQDVNIAVAWYQQKPGLSPKLLIYSASYRYTGVPGRFTGSGSGTDFTFTISSVKAEDLAVYYCQQHYSIPFTFGAGTKLEIKR
notes: Murine variable regions with hIgG4(LALA) and CL constant regions; also called M P1-B9
B17: chimeric antibody ChP2-F4 (antibody, human IgG4 S228P, kappa, F234A L235A, V domains shown)
VH: EVQLVESGGGLVKPGGSLKLSCAASGFTFSDYGMHWVRQAPEKGLEWVAYISSGSRIIYYADTVKGRFTISRDNAKNTLFLQMTSLRSEDTAMYSCARFYNYAHYTMDYWGQGTSVTVSS
VL: DIVMTQSHKFMSTSVGDRVSITCKASQDVSTAVAWYQQKPGQSPKLLIYSASYRYTGVPDRFTGSGSGTDFTFTISSVQAEDLTLYYCQHHYSTPPTFGGGTKLEIKR
notes: Murine variable regions with hIgG4(LALA) and CL constant regions; also called M P2-F4
B18: chimeric antibody ChP2-C4 (antibody, human IgG4 S228P, kappa, F234A L235A, V domains shown)
VH: QVQLKESGPGLVAPSQSLSITCTVSGFSLSTYAIGWVRQPPGKGLEWLGVIWTGGGTSYNSALKSRLSISKDNSKSQVFLKMNSLQTDDTARYYCARGDYGPFAYWGQGTLVTVSS
VL: DIVMTQSHKFMSTSLGDRVSISCKASQDVSIAVAWYQQKAGQSPKLLIYSASYRHTGVPDRFTGSGSGTDFTFTISSVQAEDLAVYYCQQHYSTPFTFGSGTKLEIKR
notes: Murine variable regions with hIgG4(LALA) and CL constant regions; also called M P2-C4
B19: chimeric antibody ChP2-E8 (antibody, human IgG4 S228P, kappa, F234A L235A, V domains shown)
VH: EVQLLESGGGLVKPGGSLKLSCAASGFTFSDYGIHWVRQAPEKGLEWVAYISSGSSIINYADTVKGRFTISRDNAKNTLLLQMTSLRSEDTAMYYCARGPNYYGSSYLLVYWGQGTLVTVSS
VL: DIVMTQSHKFMSTSVGDRVSITCKASQDVNIAVAWYQQRPGQSPKLLIYSASYRYTGVPDRFTGSGSGTDFTFTISSVQAEDLAVYYCQQHYNIPWTFGGGTKLEIKR
notes: Murine variable regions with hIgG4(LALA) and CL constant regions; also called M P2-E8
B20: chimeric antibody ChP2-B3 (antibody, human IgG4 S228P, kappa, F234A L235A, V domains shown)
VH: QVQLKQSGPGLVQPSQSLSITCTVSGFSLTNYGVHWFRQSPGKGLEWLGMIWSGGNTDYNAAFTSRLIITKDNSKSQVFFKMNSMQADDTAIYYCARGDYGSSSAYWGQGTLVTVSS
VL: DIVMTQSHKFMSTSVGDRVSITCKASQDVSIAVAWYQQKPGQSPKLLIYSASYRYTGVPDRFTGSGSGTDFTFTISSVQAEDLAVYYCQQHYSNTLTFGAGTKLEIKR
notes: Murine variable regions with hIgG4(LALA) and CL constant regions; also called M P2-B3

Target: T1, His-tagged ILT4 protein extracellular domain: ILT4-His (human, UniProt Q8N423 22-460)
T1 construct: Expressed in 293 cells; also called human ILT4-His protein
T1 sequence (Q8N423 other isoform, or with tags, fused parts or gaps limits assumed): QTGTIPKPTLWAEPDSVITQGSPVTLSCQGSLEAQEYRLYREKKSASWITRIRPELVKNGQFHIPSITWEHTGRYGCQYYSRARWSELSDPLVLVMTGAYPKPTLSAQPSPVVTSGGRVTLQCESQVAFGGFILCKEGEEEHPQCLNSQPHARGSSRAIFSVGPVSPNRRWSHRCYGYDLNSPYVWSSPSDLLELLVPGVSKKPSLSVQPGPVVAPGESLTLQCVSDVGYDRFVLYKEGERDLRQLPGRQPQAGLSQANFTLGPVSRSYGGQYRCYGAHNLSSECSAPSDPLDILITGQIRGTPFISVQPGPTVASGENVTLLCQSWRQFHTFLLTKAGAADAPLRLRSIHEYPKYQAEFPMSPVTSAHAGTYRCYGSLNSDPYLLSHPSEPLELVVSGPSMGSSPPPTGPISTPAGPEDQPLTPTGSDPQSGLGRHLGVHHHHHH
Assay: ELISA, coated ILT4-His 1 µg/mL; Assay 2

| Binder | EC50 [µg/mL] | Top [absorbance at 450 nm] |
| --- | --- | --- |
| B1 | 0.0428 | 1.98 |
| B2 | 0.0729 | 2 |
| B3 | 0.0621 | 1.83 |

Target: T1, His-tagged ILT4 protein extracellular …
Assay: SPR (Biacore), antibody captured on Protein A chip, ILT4-His as analyte, 1:1 model

| Binder | Kd [nM] | koff [s⁻¹] | kon [M⁻¹ s⁻¹] |
| --- | --- | --- | --- |
| B4 | 0.158 | 7.2e-05 | 457000 |
| B5 | 3.98 | 0.0103 | 2.59e+06 |

Target: T1, His-tagged ILT4 protein extracellular …
Assay: screening of chimeric antibodies (ILT4 protein binding, cell binding, ILT4/HLA-G blocking)

| Binder | binding result |
| --- | --- |
| B6 | binds |
| B7 | binds |
| B8 | binds |
| B9 | binds |
| B10 | binds |
| B11 | binds |
| B12 | binds |
| B13 | binds |
| B14 | binds |
| B15 | binds |
| B16 | binds |
| B17 | binds |
| B18 | binds |
| B19 | binds |
| B20 | binds |
